Results reported in publication PMC7002338.

Test system: CgpS (Corynebacterium glutamicum ATCC 13032 (strain of the protein implied?))
Assay: SPR
Details: SPR: biotinylated DNA on streptavidin chip, CgpS 180 s association, 420 s dissociation, EMSA: 14 nM DNA, buffer, salt, pH and temperature in Text S1, not in …

Substance | Kd [nM] | Kd (very fast dissociation) [nM]
Pcg1999 | 58 | –
Plys (SPR) | 11 | –
Pcg3336 (control) | – | 381
